From US20240141042A1 (INNATE PHARMA, published 2024)
Where a chain is given by its changes, count along the chain named. In names and notes the source's numbering stands. Like-named read-outs stand apart in the source and are kept apart here.

Legend:
[1] = biological target: T1, Human NKp46 recombinant proteins (human, UniProt O76036 22-258); assay: SPR, bispecific captured on Protein-A chip, human NKp46 injected, 1:1 kinetic model
T1 construct: also called recombinant human NKp46 proteins
Procedure: SPR measurements were performed on a Biacore T100 apparatus (Biacore GE Healthcare) at 25° C. In all Biacore experiments HBS-EP+(Biacore GE Healthcare) and NaOH 10 mM served as running buffer and regeneration buffer respectively. Sensorgrams were analyzed with Biacore T100 Evaluation software. Protein-A was purchase from (GE Healthcare). Human NKp46 recombinant proteins were cloned, produced and purified at Innate Pharma.
(§1) Protein-A proteins were immobilized covalently to carboxyl groups in the dextran layer on a Sensor Chip CM5. The chip surface was activated with EDC/NHS (N-ethyl-N′-(3-dimethylaminopropyl) carbodiimidehydrochloride and N-hydroxysuccinimide (Biacore GE Healthcare)). Protein-A was diluted to 10 μg/ml in coupling buffer (10 mM acetate, pH 5.6) and injected until the appropriate immobilization level was reached (i.e. 2000 RU). Deactivation of the remaining activated groups was performed using 100 mM ethanolamine pH 8 (Biacore GE Healthcare).
Monovalent affinity study was done following a regular Capture-Kinetic protocol recommended by the manufacturer (Biacore GE Healthcare kinetic wizard). Seven serial dilutions of human NKp46 recombinant proteins, ranging from 6.25 to 400 nM were sequentially injected over the captured Bi-Specific antibodies and allowed to dissociate for 10 min before regeneration. The entire sensorgram sets were fitted using the 1:1 kinetic binding model.

human FcRn (Example 10) [2] = biological target: T2, human FcRn (Example 10) (human, UniProt P55899 24-297; P61769 21-119, limits assumed); assay: SPR, FcRn immobilized on CM5, SCK/Two state reaction
T2 construct: Construct not described; Beta-2-microglobulin is not mentioned; also called recombinant FcRn proteins
T2 sequence (P55899 24-297 limits assumed, form in doubt, chain 1 of 2): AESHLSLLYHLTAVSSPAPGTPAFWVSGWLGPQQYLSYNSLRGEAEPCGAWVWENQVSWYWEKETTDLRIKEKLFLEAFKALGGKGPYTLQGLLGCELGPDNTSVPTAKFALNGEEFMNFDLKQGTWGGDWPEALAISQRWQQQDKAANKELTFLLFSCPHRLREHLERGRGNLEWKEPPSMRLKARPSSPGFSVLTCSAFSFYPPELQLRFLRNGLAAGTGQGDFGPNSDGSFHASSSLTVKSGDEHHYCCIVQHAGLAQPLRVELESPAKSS
T2 sequence (P61769 21-119 limits assumed, form in doubt, chain 2 of 2): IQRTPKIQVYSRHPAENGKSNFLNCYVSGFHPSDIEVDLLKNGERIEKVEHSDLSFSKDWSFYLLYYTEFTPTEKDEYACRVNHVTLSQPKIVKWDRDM
Procedure: SPR measurements were performed on a Biacore T100 apparatus (Biacore GE Healthcare) at 25° C. In all Biacore experiments Acetate Buffer (50 mM Acetate pH5.6, 150 mM NaCl, 0.1% surfactant p20) and HBS-EP+ (Biacore GE Healthcare) served as running buffer and regeneration buffer respectively. Sensorgrams were analyzed with Biacore T100 Evaluation software. Recombinant mouse FcRn was purchase from R&D Systems.
as §1, with “Recombinant FcRn” for “Protein-A”, “FcRn proteins were” for “Protein-A was”, “2500” for “2000”

human FcRn (Example 10) [3] = biological target: T2, human FcRn (Example 10); assay: SPR, FcRn immobilized on CM5, Steady State
NKp46 mutant 6 = biological target: T3, NKp46 mutant 6 (human, UniProt O76036 22-304); assay: flow cytometry on HEK293T cells transfected with NKp46 mutant 6 (R101A, V102A), antibody titrated 0.001-1 ug/ml
T3 construct: Expressed in transfected HEK293T cells
T3 chain: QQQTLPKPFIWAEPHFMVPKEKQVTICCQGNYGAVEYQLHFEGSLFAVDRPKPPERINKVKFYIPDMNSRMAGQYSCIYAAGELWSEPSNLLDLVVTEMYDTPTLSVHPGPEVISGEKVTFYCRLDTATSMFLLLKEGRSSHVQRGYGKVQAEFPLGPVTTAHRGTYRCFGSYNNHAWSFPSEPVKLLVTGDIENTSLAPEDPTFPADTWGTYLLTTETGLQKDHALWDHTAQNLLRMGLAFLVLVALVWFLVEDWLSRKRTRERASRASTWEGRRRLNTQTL

NKp46 mutant 2 = biological target: T4, NKp46 mutant 2 (human, UniProt O76036 22-304); assay: flow cytometry on HEK293T cells transfected with NKp46 mutant 2 (K41S, E42A, E119A), antibody titrated 0.001-1 ug/ml
T4 construct: Expressed in transfected HEK293T cells
T4 chain: T3 chain with K20S, E21A, A80R, A81V, E98A
Procedure: All the anti-NKp46 antibodies were tested for their binding to each mutant by flow cytometry. A first experiment was performed to determine antibodies that lose their binding to one or several mutants at one concentration (10 μg/ml).

[4] = biological target: T1, Human NKp46 recombinant proteins; assay: SPR, antibody captured on Protein-A chip, human NKp46 injected, 1:1 kinetic model
NKp46 mutant Supp7 = biological target: T5, NKp46 mutant Supp7 (human, UniProt O76036 22-304); assay: flow cytometry on HEK293T cells transfected with NKp46 mutant Supp7 (Y121A, Y194A; printed 'Mutant S7'), antibody titrated 0.001-1 ug/ml
T5 construct: Expressed in transfected HEK293T cells; also called supplementary mutant Supp7
T5 chain: T3 chain with A80R, A81V, Y100A, Y173A

NKp46 mutant Supp8 = biological target: T6, NKp46 mutant Supp8 (human, UniProt O76036 22-304); assay: flow cytometry on HEK293T cells transfected with NKp46 mutant Supp8 (P132A, E133A; printed 'Mutant S8'), antibody titrated 0.001-1 ug/ml
T6 construct: Expressed in transfected HEK293T cells; also called supplementary mutant Supp8
T6 chain: T3 chain with A80R, A81V, P111A, E112A

NKp46 mutant 19 = biological target: T7, NKp46 mutant 19 (human, UniProt O76036 22-304); assay: flow cytometry on HEK293T cells transfected with NKp46 mutant 19 (I135A, S136A), antibody titrated 0.001-1 ug/ml
T7 construct: Expressed in transfected HEK293T cells
T7 chain: T3 chain with A80R, A81V, I114A, S115A

[5] = biological target: T8, human NKp46 expressed at the cell surface (human, UniProt O76036 22-304); assay: flow cytometry on HEK293T cells transfected with wild-type NKp46, antibody titrated 0.001-1 ug/ml
T8 construct: Wild-type NKp46 on cells (transfected cell lines or NK cells); also called cell line expressing the human NKp46 construct; NKp46 cell line

[6] = biological target: T8, human NKp46 expressed at the cell …; assay: as above; remark: listed apart in the source

B1: CD19-F5-NKp46-3 (bispecific antibody, human IgG1, kappa)
chain 1: not shown
chain 2: not shown
chain 3: DIVMTQSPATLSVTPGDRVSLSCRASQSISDYLHWYQQKSHESPRLLIKYASQSISGIPSRFSGSGSGSDFTLSINSVEPEDVGVYYCQNGHSFPLTFGAGTKLELKASTKGPSVFPLAPSSKSTSGGTAALGCLVKDYFPEPVTVSWNSGALTSGVHTFPAVLQSSGLYSLSSVVTVPSSSLGTQTYICNVNHKPSNTKVDKRVEPKSCDKTH
notes: Heterotrimer with dimeric Fc: first (170), second (169) and third (171) chain
For B1, which Kd [1] is on record?
The Kd was 0.067 µM.

What about the koff [1] of the same binder?
The koff was 0.0051 s⁻¹.

And the kon [1]?
The kon was 75600 M⁻¹ s⁻¹.

And the Kd (human FcRn (Example 10) [2])?
The Kd was 0.0026 µM.

B2: CD19-F11-NKp46-3 (bispecific antibody)
chain 1: DIQLTQSPASLAVSLGQRATISCKASQSVDYDGDSYLNWYQQIPGQPPKLLIYDASNLVSGIPPRFSGSGSGTDFTLNIHPVEKVDAATYHCQQSTEDPWTFGGGTKLEIKGGGGSGGGGSGGGGSQVQLQQSGAELVRPGSSVKISCKASGYAFSSYWMNWVKQRPGQGLEWIGQIWPGDGDTNYNGKFKGKATLTADESSSTAYMQLSSLASEDSAVYFCARRETTTVGRYYYAMDYWGQGTTVTVSSGGGSSAPELLGGPSVFLFPPKPKDTLMISRTPEVTCVVVDVSHEDPEVKFNWYVDGVEVHNAKTKPREEQYSSTYRVVSVLTVLHQDWLNGKEYKCKVSNKALPAPIEKTISKAKGQPREPQVYTLPPSREEMTKNQVSLTCLVKGFYPSDIAVEWESNGQPENNYKTTPPVLDSDGSFFLYSKLTVDKSRWQQGNVFSCSVMHEALHNHYTQKSLSLSPGGGGGSGGGGSGGGGSGQPREPQVYTLPPSREEMTKNQVSLTCLVKGFYPSDIAVEWESNGQPENNYKTTPPVLDSDGSFFLYSKLTVDKSRWQQGNVFSCSVMHEALHNHYTQKSLSLSPGSTGSEVQLQQSGPELVKPGASVKISCKTSGYTFTEYTMHWVKQSHGKSLEWIGGISPNIGGTSYNQKFKGKATLTVDKSSSTAYMELRSLTSEDSAVYYCARRGGSFDYWGQGTTLTVSSRTVAAPSVFIFPPSDEQLKSGTASVVCLLNNFYPREAKVQWKVDNALQSGNSQESVTEQDSKDSTYSLSSTLTLSKADYEKHKVYACEVTHQGLSSPVTKSFNRGEC
chain 2: B1 chain 3
notes: Heterodimer; also called CD19-F11A-NKp46-3
B2 was tested. Which Kd [1] did it give?
The Kd was 0.03 µM.

What about the koff [1] of the same binder?
The koff was 0.0104 s⁻¹.

And the kon [1]?
The kon was 339000 M⁻¹ s⁻¹.

And the Kd (human FcRn (Example 10) [3])?
Its Kd is 0.596 µM.

B3: CD19-F6-NKp46-3 (bispecific antibody, human IgG1, kappa)
chain 1: not shown
chain 2: not shown
chain 3: B1 chain 3
notes: As F5 but with N297S: first (173), second (172) and third (174) chain
With B3 as the binder, how does the Kd [1] read?
Its Kd is 0.063 µM.

And the koff [1]?
Its koff is 0.00503 s⁻¹.

And the kon [1]?
The kon was 79300 M⁻¹ s⁻¹.

And the Kd (human FcRn (Example 10) [2])?
Its Kd is 0.006 µM.

B4: NKp46-3 IgG1 (antibody, V domains shown)
VH: EVQLQQSGPELVKPGASVKISCKTSGYTFTEYTMHWVKQSHGKSLEWIGGISPNIGGTSYNQKFKGKATLTVDKSSSTAYMELRSLTSEDSAVYYCARRGGSFDYWGQGTTLTVSS
VL: DIVMTQSPATLSVTPGDRVSLSCRASQSISDYLHWYQQKSHESPRLLIKYASQSISGIPSRFSGSGSGSDFTLSINSVEPEDVGVYYCQNGHSFPLTFGAGTKLELK
notes: Chimeric full-length human IgG1; also called NKp46-3 antibody as a full-length human IgG1
Does B4 bind (NKp46 mutant 6)?
Result: binds

Does B4 bind (NKp46 mutant 2)?
Result: binds

And the Kd [4]?
The Kd was 0.02 µM.

What about the koff [4] of the same binder?
The koff was 0.00433 s⁻¹.

And the kon [4]?
The kon was 222000 M⁻¹ s⁻¹.

Does B4 bind (NKp46 mutant Supp7)?
Result: binds

B5: NKp46-2 (antibody, human IgG1, V domains shown)
VH: EVQLQESGPGLVKPSQSLSLTCTVTGYSITSDYAWNWIRQFPGNKLEWMGYITYSGSTSYNPSLESRISITRDTSTNQFFLQLNSVTTEDTATYYCARGGYYGSSWGVFAYWGQGTLVTVSA
VL: DIQMTQSPASLSASVGETVTITCRVSENIYSYLAWYQQKQGKSPQLLVYNAKTLAEGVPSRFSGSGSGTQFSLKINSLQPEDFGSYYCQHHYGTPWTFGGGTKLEIK
notes: also called parental human IgG1 chimeric antibody NKp46-2
Does B5 bind (NKp46 mutant Supp8)?
Result: binds

Does B5 bind (NKp46 mutant 19)?
Result: binds

Does B5 bind (NKp46 mutant 2)?
Result: binds

Does B5 bind (NKp46 mutant Supp7)?
Result: binds

Does B5 bind [5]?
Result: binds

B6: NKp46-4 (antibody, V domains shown)
VH: QVQLQQSAVELARPGASVKMSCKASGYTFTSFTMHWVKQRPGQGLEWIGYINPSSGYTEYNQKFKDKTTLTADKSSSTAYMQLDSLTSDDSAVYYCVRGSSRGFDYWGQGTLVTVSA
VL: DIQMIQSPASLSVSVGETVTITCRASENIYSNLAWFQQKQGKSPQLLVYAATNLADGVPSRFSGSGSGTQYSLKINSLQSEDFGIYYCQHFWGTPRTFGGGTKLEIK
notes: also called Antibody NKp46-4
Does B6 bind (NKp46 mutant 19)?
Result: binds

Does B6 bind [6]?
Result: binds
